Laboratory results: the nanobody polyreactivity screen of Harvey et al. (2022)

Test: yeast display, Sf9 membrane polyspecificity reagent, FACS + sequencing; frameworks hold sequencing errors
Method in brief: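 Galactose induction of a Saccharomyces cerevisiae BJ5465 synthetic nanobody display library ran 36–48 hours. The cells were then stained for 1 hour at 4 °C with 10% biotinylated, detergent-solubilized Sf9 membrane reagent, pulled down on streptavidin microbeads and FACS-sorted into low and high (top ~1%) gates on expression and reagent-binding fluorescence. Labels for polyreactivity follow the gate of origin.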
In the case of “QVQLVESGGGLVQAGGSLRLSCAASGGTLYYYAMGWSRQAPGKERELVADITNSGSTNYADSVKGRFTISRDNAKNTVYLQMNSLKPEDTAVYYCAAYSWSWYHPEFDYWGQGTQVTVSS”, the “polyreactivity (PSR sort gate)” value is reported as “high polyreactivity”.
In the case of “QVQLVESGGGLVQAGGSLRLSCAASGFIFNLYAMGWYRQAPGKEREFVAGISYSGNTYYADSVKGRFTISRDNAKNTVYLQMNSLKPEDTAVYYCAARRGYNDGYWGQGTKVTVSS”, the “polyreactivity (PSR sort gate)” value is reported as “high polyreactivity”.
In the case of “QVQLVESGGGLVQAGGSLRLSCASSGSNFGYNAMGWYRQAPGKERELVAAILSSDSRTHYADSVKGRFTISRDNAKNTVYFQRNSLKPEDTAVYYCAAVKRRPGHYLYDYWGQGTQVSVSS”, the “polyreactivity (PSR sort gate)” value is reported as “low polyreactivity”.
In the case of “QVQLVESGGGLVQAGGSLRLSCAASGFTFDYYAMGWYRQAPGKERELVAAITSDGSTYYADSVKGRFTISRDNAKNTVYLQMNSLKPEDTAVYYCAADGISLYATAYDYWGQGTQVTVSS”, the “polyreactivity (PSR sort gate)” value is reported as “low polyreactivity”.
In the case of “QVQLEESGGGLVQAGGSLRLSCAASGSIFNYYAMGWYRQAPGKERELVAAITTSGGNTYYADSVKGRFTISRDNAKNTVYLQMNSLKPEDTAVYYCNVDARSSYDYWGQGTQVTVSS”, the “polyreactivity (PSR sort gate)” value is reported as “low polyreactivity”.
With “QDQLVESGGGLVQAGGSLRLSCAASGSTFPFYAMGWDRQAPGKERELVAAITSGGSTYADSVKGRFTISRDNAKNTVYLQMNSLKPEDTAVYYCAAVGWFADCLFSDIKGYSWGQGTPVTVSS” the “polyreactivity (PSR sort gate)” value was “low polyreactivity”.
With “QVQLVESGGGLVQAGGSLRLSCAASGSTFTWNVMGWYRQAPGKERELVASITSGDSTYADSVKGRFTISRDNAKNTVYLQMNSLKPEDTAVYYCNVGYDQEKYGYWGQGTQVTVSS” the “polyreactivity (PSR sort gate)” value was “low polyreactivity”.
In the case of “QVQLVESGGGLVQAGGSLGLSCAASGRTFGPYAMGWYRQAPGKERELVAAISASGASTSYADSVKGRFTIARDNAKNTVYLQMNSLKPEDTAVYYCARSYYHRPFGYWGQGTQVTVSS”, the “polyreactivity (PSR sort gate)” value is reported as “low polyreactivity”.
In the case of “QFQLVESGGGLVQAGGSLRLTCAASGNIFADYAMGWYRQAPGKERELVAAISRGGITSYADSVKGRFTISRDNAKNTVYLQMNSRKPEDTAVYYCATVRYDVYDSLGFGYWGQGTQVTVSS”, the “polyreactivity (PSR sort gate)” value is reported as “low polyreactivity”.
For “QVQLVESGGGLVQAGGSLRLSCAASGFIFKVNAMGWYRQAPGKERELFAAISRRGVTTYYADSVKGRFTISRDNAKNTVYLQMNSLKPEDTAVYYCNRARSYGDTDKLAILADDYWGQGTKVTVSS”, the “polyreactivity (PSR sort gate)” value was “high polyreactivity”.
In the case of “QVQLVESGGGLVQAGGSLRLSCAASGRIFKYYAMGWYRQAPGKERELVAAISRSGGSTYYADSVKGRFTISRDNAKKTVYLQMNSLKPEDTAVYYCAAGYKQATYDRIRTAYGYWGQGTQVTVSS”, the “polyreactivity (PSR sort gate)” value is reported as “high polyreactivity”.
For “QVQLVESGGGLVQAGGSLRLSCAASGFTFAFNDMGWYRQAPGKERELVAAITWSGGSTYYADSVKGRFTISRDNAKNTVYLQMNSLKPEDTAVYYCNADLLGYVYLNLPVGSWGQGTQVTVSS”, the “polyreactivity (PSR sort gate)” value was “low polyreactivity”.
For “QVQLVESGGGLVQAGGSLRLSCAASGSIIWRNTMGWYRQAPGKESELVARITGRGGRTNYADSVKGRFTISRDNAKNTVYLQMNSLKPEDTAVYYCAAAYPSVAYSYRYDYWGQGTQVTVSS”, the “polyreactivity (PSR sort gate)” value was “high polyreactivity”.
With “QVQLVESGGGLVQAGGSLRLSCAASGFIFYNYAMGWYRQAPGKERELVAAITGGGSTNYADSVKGRFTISRDNAKNTVYLQMNSLKPEDTAVYYCAAEEGPPWSRYDYWGQGTQVTVSS” the “polyreactivity (PSR sort gate)” value was “low polyreactivity”.
With “QVQLVESGGGLVQAGGSLRLSCAASGSTFRQYAMGWSRQAPGKERELVAAISSSGGSTYYADSVKGRFTISRDNAKNTVYLQMNSLKPEDTAGYYCNARLYGSASWGQPKEYDYWGQGTQVTVSS” the “polyreactivity (PSR sort gate)” value was “low polyreactivity”.
For “QVQLVESGGGLVQAGGSLRLSCAASGSTFYAYAMGWYRQAPGKERELVAAISGSGGRTYYADSVKGRFTISRDNAKNTVYLQMNSLKPEDTAVYYCAASLTSRLPDPPRYYWGQGTQVTVSS”, the “polyreactivity (PSR sort gate)” value was “high polyreactivity”.
For “QVQLVESGGGLVQAGRSLRLSCAASGRIFGPYTMGWYRQAPGKEREFVAAITRRGGSTYYADSVKGRFTISRDNAKNTGYLQRHSLKPEDTAVYYCAAVGQKRSLGYSWGQGTQVTVSS”, the “polyreactivity (PSR sort gate)” value was “low polyreactivity”.
For “QVHLVESGGGLVQAGGSLRLSCAASGFIFYYYAMGWYRQAPGKERELFARISRRGGSTYYADSVKGRFTISRDNAKNTVYLQMNSLKPEDTAVYYCAAVYLVYYGVSDMDYWGQGTKVTVSS”, the “polyreactivity (PSR sort gate)” value was “high polyreactivity”.
With “QVQLVESGGGLVQAGGSLRLSCAASGLIFYYYAMGWYRQAPGKEREVVAAISSNGGSTYYADSVKGRFTISRDNAKNTVYLQMNSLKPEDTAVYYCAAGYAYYYWTPYYYWGQGTQVTVSS” the “polyreactivity (PSR sort gate)” value was “high polyreactivity”.
For “QVQLVESGGGLVQAGGSLRLSCAASGSTFLGYTMGWYRQAPGKERELVASITNSGSTDYADSVKGRFTISRDNAKNTVYLHMNSLKPEDTAVYYCAAQFYRYPSKNDYWGQGTQVTVSS”, the “polyreactivity (PSR sort gate)” value was “high polyreactivity”.
With “QVQLVESGGGLVQAGGSLRLSCAASGRTFRPYAMGWYRQAPGKERELVAAISQSVGSTYYADSVKGRFTISRDNAKNTVYLQMNSLKPEDTAVYYCAADRWSATHYVWYDYWGQGTQVTVSS” the “polyreactivity (PSR sort gate)” value was “high polyreactivity”.
For “QVQLVESGGGLVQAGGSLRLSCAASGNIFRPYTMGWYRQAPGKERELVARISSGGSTNYADSVKGRFTISRDNAKNTVNLQMNSLKPEDTAVYYCAKRYGTVHSRYGYWGQGTQVTVSS”, the “polyreactivity (PSR sort gate)” value was “high polyreactivity”.
In the case of “QVQLVESGGGLVQAGGSLRLSCAASGLTLRNYAMGWYRQAPGKERELVARITTGGSTHYADSVKGRFTISRDNAKNTVSLQMHSLKPEDTAVYYCNTGPYTFVSPEYYYWGQGTQVTVSS”, the “polyreactivity (PSR sort gate)” value is reported as “low polyreactivity”.
In the case of “QVQLEESGGGLVQAVRSLRLSCAASGSTFDYYAMRWFRQAPWKEREFVAAISVSGGRTYDADSVKGRFTISRDNAKTTVYLQMNSQKPEDTAVSYCAAVQWYLPSFRYYYRGQGTQVTVSS”, the “polyreactivity (PSR sort gate)” value is reported as “high polyreactivity”.
With “QEQLQESGGGLVQEGGSLRLSCAASGNISPPADMGWYRQAPGKERELVASIGTGGTTNYADSVKGRFTISRDNAINTVYLQMNSLKPDDTAVYYCAAVRYEYNPYDYWGQGTQVTVSS” the “polyreactivity (PSR sort gate)” value was “low polyreactivity”.
In the case of “QVQLVESGGGLVQAGGSLRLSCAASGRIFRTKAMGWYRLAPGKERELVAAITFSGGGTYYADSVKGRFTISRDNAKNTVYLQMNSLKPEDTAVYYCATDWYYEYYYWGQGTQVTVSS”, the “polyreactivity (PSR sort gate)” value is reported as “low polyreactivity”.
For “QVQLVESGGGLVQAGGSLRLSCAASGFTFPTYAMGWYRPAPGKERELVAAITRGGSTYYADSVKGRFTISRDNAKNTVYLQMNSLKPEDTAVYYCAGDDPWYEEDYWGQGTQVTVSS”, the “polyreactivity (PSR sort gate)” value was “low polyreactivity”.
For “QVQLVESGGGLGQAGGSLSLSCAASGFNFSHYAMGWYIPAPGKERELVAAITRGGSTKYADSVKGRFTISRDNAKNTVDLEMNSLKPEDTAVYYCAKDKTYRNVRGVGYWGQGTQVTVSS”, the “polyreactivity (PSR sort gate)” value was “high polyreactivity”.
With “QVQLVESGGGLVQAGGSLRLSCAASGRTFGYYAMGWYRQAPGKERELVAAISRSGSRTYYADSVKGRFTISRDNAKNTVYLQMNSLKPEDTAVYYCNKVKEFYVPTEYDYWGQGTQVTVSS” the “polyreactivity (PSR sort gate)” value was “high polyreactivity”.
With “QVQLVESGGGLVQAGGSLRLSCSASGFIFWYNAMGWYRQAPGKERELVAAISWSGGRTYYADSVKGRFTISRDNAKNTVYLQMNSLKPEDSAVYYCAAKVPRSSRSYGYWGQGTQVTVSS” the “polyreactivity (PSR sort gate)” value was “high polyreactivity”.
With “QVQLVESGGGLVQAGGSLRLSCAASGSIFGGYAMGWYRQAPGKEGELVAAISWSSSSTYYADSVKGRFTMSRDNAKNTVYLQMNSLKPEDTAVYYCATGIYPQTSDYDYWGQGTQVTVSS” the “polyreactivity (PSR sort gate)” value was “low polyreactivity”.
With “QFQLVESGGGLVQAGGSLRLSCAASGSTFWTNAMGWYRQAPGKERELVAVISRGGSTNYADSVKGRFTISRDNEKNTVYLQMNSLKPEDTAVFYCAAASYLYGRYYYWGQGTQVTVSS” the “polyreactivity (PSR sort gate)” value was “high polyreactivity”.
In the case of “QVQLVESGGGIVQAGGSLRLSCAASGPNFTDNAMGWYRQAPGKERELVAAITGPGGSTYYAHSVKGRFTISRDNAKTTVYLQMNSLKREDTAVFYCAADYYYPYYWGQGTQVTVSS”, the “polyreactivity (PSR sort gate)” value is reported as “low polyreactivity”.
With “QVQLQESGGGLVQAGGSLRLSCAASGNISVTGFMGWYRQAPGKERELVASIGIGGTTYYADSVKGRFSISRDNAKNTVYLQMNSLKPEDTAVYYCAARVIYYYGSGPYDYWGQGTQVTVSS” the “polyreactivity (PSR sort gate)” value was “low polyreactivity”.
With “QVQLVESGGGIVQAGGSLRLSCAASGNIFHKNAMGWYRQAPGKERELVASISCSGGSTYYADSVKGRFTISRDNAKNTVYLQMNSLKPEDTAVYYCATDAFGYPVNRYALNDYWGQGTQVTVSS” the “polyreactivity (PSR sort gate)” value was “low polyreactivity”.
With “QVQLVESGVGLVQAGGSLRLSCAASGSIFWLYAMGWYRQAPGKERELVAAIDSGDSTKYADSVKGRFTISRDTAKNTVYLQMNSLKPEETAVYYSAKDYYYGLEHYGYWGQGTQVTVSS” the “polyreactivity (PSR sort gate)” value was “low polyreactivity”.
For “QVQLVESGGGLVQAGGSLRLRCAASGFIFPQYAMGWYRQAPGKEREKVAAISWSGTRTYYADSVKGRFTISRDNAKNTVYLQMNSLKPEDTADYYCAARIDRQYRWTGFGYWGQGTQVTVSS”, the “polyreactivity (PSR sort gate)” value was “high polyreactivity”.
With “QVQHVESGRGLVQAGCSLPLSCAASGFTFLAYAMGWYRQAPGKETELVAAISRSGGRTYYADSVKWRFTISRDNAKNTVYLQMNSLKPEDTAVYYCAKRVLTHPGDDYWGQGAQVTVSS” the “polyreactivity (PSR sort gate)” value was “high polyreactivity”.
In the case of “QVQHVESGGGLVQAGGSLRLSCAASGFIFTSYAMGWYRQAPGKERELVAVISASDGSTYYADSVKGRFTISRDNAKNTVYLQMNILKPEDTAVYYCNATEYLGGGGIVHVEFGYWGQGTQVTVSS”, the “polyreactivity (PSR sort gate)” value is reported as “low polyreactivity”.
With “QEQLQESGGGLVQAGGSLRLSCAASGNIYDADIMGWYRQAPGKERELVTSITDGGSTNYADSVKGRFTISRDNAKNTVYLQMNSLKPEDTAVYFCAAIAYPVIPTSFDYNSDYSYWGQGTQVTVSS” the “polyreactivity (PSR sort gate)” value was “low polyreactivity”.
With “QVQLVESGGGLVQAGGSLRLSCAASGRTFYKYGMGWYRQAPGKERELVARINSNGGSTYYADSVKGRFTISRDNAKNTVYLQMNSLKPADTAVYYCARSYVRSYGYYYWGQGPQVTVSS” the “polyreactivity (PSR sort gate)” value was “low polyreactivity”.
